Patent US20090036382A1, “TGF-Beta Modulators and Use Thereof” (Universita' Degli Studi Di Padova, priority 2006, published 2009)

Legend:
pro TGF-β1 processing = target: T1, pro TGF-β1 processing (Homo sapiens, UniProt P01137); assay: Western blot of pro TGF-β1 conversion to LAP and mature TGF-β1 in transfected HEK293T cells; format: cell-based
T1 construct: Flag; expressed in transfected cells; host or cells: HEK293T (A6); mouse embryo fibroblasts (A8)
From the text: (§1) • The construct for emilin 1 expression was engineered in pCS2 vector (Rupp R. A. et al., 1994, Genes Dev 8, 1311-1323) (for a physical map of the vector, see the site faculty.washington.edu/rtmoon/pcs2+.html) as described (Zanetti M. et al., 2004, Mol Cell Biol 24, 638-650); the vector used for proTGF-β expression in MEF and HEK293T cells is pCDNA3.1 (Invitrogen). Vectors containing the coding sequence for human pro TGF-β are described in Young and Murphy-Ullrich, 2004 (Young and Murphy-Ullrich, 2004, J Biol Chem 279, 38032-38039). The human pro TGF-β cDNA sequence is reported in the data bank (NP_000660; protein 000651). • The vector for Furin/SPC 1 expression is pCDNA3.1 (Invitrogen) • p15 and CAGA 12 promoter fragments are described in Jonk L. J. et al., 1998, J Biol Chem 273, 21145-21152 […]. • Constructs containing Flag sequences are described in Young G. D and Murphy-Ullrich J E, 2004, J Biol Chem 279, 38032-38039. • Constructs containing the Flag epitope (e.g. Flag-EMI-domain-GPI) were prepared as described in Chubet R G et al. Biotechniques 1996; 20(1):136-141 and detected by anti-Flag antibody (Kodak Inc.). • Constructs containing the GPI anchor were prepared as described in the Manual “Current Protocols in Cell Biology” Howard R. Petty Wayne State University, Detroit, Mich.; Juan S. Bonifacino, Mary Dasso, Joe B. Harford, Jennifer Lippincott-Schwartz, and Kenneth M. Yamada (eds.), Copyright C 2003 John Wiley & Sons, Inc. (GPI-anchor). In the construct Flag-EMI domain-GPI, the Flag sequence was inserted at the N-terminus after the signal peptide, while the GPI-anchor sequence was placed at the COOH-terminal end. • The construct emilin 1-KDEL was obtained by inserting the KDEL coding sequence described by Munro S., and Pelham, H. R., 1987, Cell 48, 899-907 upstream the emilin 1 STOP codon. • The construct containing the type II TGF-β receptor with HA epitope was described in Wrana J. L. et al., 1994, Nature 370, 341-347. • supplier of the drugs used: SP600125 (Calbiochem), SB431542 (Tocris). • Purified recombinant LAP and TGF-β1 proteins were purchased from (R&D Systems)
To verify whether emilin or its EMI domain inhibit TGF-β or its precursor, HEK293T cells were cotransfected with plasmids driving the expression of pro TGF-β1 (fused to the FLAG-domain, even though the antibody used were directed at LAP and TGF-β proteins) and emilin-1 (or EMI-domain). […] The anti-Flag antibody used was obtained from Kodak Inc; for the preparation of Flag constructs, see Younjg and Murphy-Ullrich (Young and Murphy-Ullrich, 2004).
As reported in the summary scheme above FIG. 5A, HEK293T cells were transfected with the plasmid encoding pro TGF-β1 (lane 1) and cotransfected with emilin-1 (lane 3) or treated with decanoyl-RVKR-CMK peptide (Decanoyl-Arg-Val-Lys-Arg-chloromethylketone, Alexis Corporation, Lausen, Switzerland) (lane 2) at a concentration of 100 μM. The peptide is an irreversible and competitive inhibitor of furin proprotein convertase and of other SPC family members (Proprotein Convertase); in addition, it inhibits pro-MMP2 dependent furin activation. The supernatant was then loaded on SDS-PAGE and detected by Western-blot with anti-TGF-β1 antibody. […] An increase of the precursor band in lanes 2 and 3 is […] to the decrease of TGF-β. Therefore it can be concluded that this assay detects an effect of emilin-1 on TGF-β1 processing that is similar to the effect of Furin inhibitors.

pro TGF-β = target: T2, pro TGF-β (Homo sapiens, UniProt P01137); assay: Co-immunoprecipitation / Western blot of EMI domain or emilin1 with pro TGF-β in HEK293T cells; format: binding; conditions: HEK293T cell extracts or culture medium; anti-Flag / anti-LAP IP; FIG. 4A-4C
T2 construct: expressed in transfected cells; host or cells: HEK293T
From the text: • The construct for emilin 1 expression was engineered in pCS2 vector (Rupp R. A. et al., 1994, Genes Dev 8, 1311-1323) (for a physical map of the vector, see the site faculty.washington.edu/rtmoon/pcs2+.html) as described (Zanetti M. et al., 2004, Mol Cell Biol 24, 638-650); the vector used for proTGF-β expression in MEF and HEK293T cells is pCDNA3.1 (Invitrogen). Vectors containing the coding sequence for human pro TGF-β are described in Young and Murphy-Ullrich, 2004 (Young and Murphy-Ullrich, 2004, J Biol Chem 279, 38032-38039). […]

pro TGF-β processing = assay: Cell-mixing experiment, responder (CAGA12-lux) and stimulator (proTGF-β) HEK293T cells; format: cell-based; conditions: emilin 1 cotransfected in S cells or only in R cells; FIG. 6A
Method: To determine where emilin and pro TGF-β interact (whether intracellularly or extracellularly), two types of HEK293T cells, responder (R) and stimulator (S), were prepared by transfecting the CAGA12-lux plasmid in the former and of the proTGF-β coding plasmid in the latter cells. Therefore, R cells respond to TGF-β by activating the luciferase reporter gene, while S cells produce TGF-β and can stimulate the former cells only if TGF-β is secreted. To determine where emilin-1 blocks TGF-β processing, R or S cells were cotransfected with the emilin 1 coding plasmid, and this transfection is indicated with the initial +E under the corresponding column bar in FIG. 6A.
To be able to compare the results obtained under the various conditions, all cells were cotransfected also with the CMV-lacZ vector. Mock refers to cells transfected with CMV-lacZ plasmid alone. […] Therefore, the inhibition of pro TGF-β processing by emilin 1 occurs in the extracellular compartment.

mature TGF-β1 = assay: CAGA12-lux luciferase reporter in HEK293T cells treated with recombinant TGF-β1; format: cell-based; conditions: 5 ng/ml recombinant TGF-β1, expression vector 500 ng, FIG. 2B
Method: (§2) To verify how emilin or the EMI domain can contrast TGF-β1 activity independently from receptor binding, HEK293T cells were transfected with a construct coding luciferase placed under control of a TGF-β activated promoter: CAGA12-lux (Jonk et al., 1998) alone or in combination with a emilin1 expression vector (500 ng) as shown in FIG. 2B. After transfection, cells were treated (black bar) or not treated (white bar) with 5 ng/ml recombinant TGF-1 (lanes 1 and 2). Column bars from 3 to 6 report luciferase expression values in experiments with cells co-transfected with the expression vector for emilin1 (or EMI-domain or emilin1ΔEMI) alone (white bars) or in combination with the vector encoding pro TGF-β1 (black bars). Values show the mean±st. dev.

pro TGF-β1 = assay: CAGA12-lux luciferase reporter in HEK293T cells co-transfected with pro TGF-β1 vector; format: cell-based, human
From the text: as §1, §2
As further validation of the above observations, HEK293T cells were cotransfected with expression plasmids carrying the cDNAs shown in the summary scheme above the figure, along with CAGA12-lux and CMV-lacZ constructs, and luciferase expression levels were measured.

T1 sequence (P01137 30-390): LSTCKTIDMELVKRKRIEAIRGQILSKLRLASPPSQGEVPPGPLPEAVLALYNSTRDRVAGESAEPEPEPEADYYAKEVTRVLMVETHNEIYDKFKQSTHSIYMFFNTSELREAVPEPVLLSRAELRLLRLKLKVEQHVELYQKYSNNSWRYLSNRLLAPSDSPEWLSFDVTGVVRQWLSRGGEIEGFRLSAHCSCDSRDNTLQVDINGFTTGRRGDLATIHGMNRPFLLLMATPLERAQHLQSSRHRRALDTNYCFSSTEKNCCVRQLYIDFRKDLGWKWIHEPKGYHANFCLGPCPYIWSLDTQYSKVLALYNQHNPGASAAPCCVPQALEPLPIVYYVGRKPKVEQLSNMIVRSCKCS
T2 sequence (P01137 30-390): as above

B1: emilin-1: emilin family extracellular matrix protein carrying an EMI domain, GenBank NP—008977; expressed from pCS2 vector by transfection (protein)
chain: ASYPPRGFSLYTGSSGALSPGGPQAQIAPRPASRHRNWCAYVVTRTVSCVLEDGVETYVKYQPCAWGQPQCPQSIMYRRFLRPRYRVAYKTVTDMEWRCCQGYGGDDCAESPAPALGPASSTPRPLARPARPNLSGSSAGSPLSGLGGEGPGESEKVQQLEEQVQSLTKELQGLRGVLQGLSGRLAEDVQRAVETAFNGRQQPADAAARPGVHETLNEIQHQLQLLDTRVSTHDQELGHLNNHHGGSSSSGGSRAPAPASAPPGPSEELLRQLEQRLQESCSVCLAGLDGFRRQQQEDRERLRAMEKLLASVEERQRHLAGLAVGRRPPQECCSPELGRRLAELERRLDVVAGSVTVLSGRRGTELGGAAGQGGHPPGYTSLASRLSRLEDRFNSTLGPSEEQEESWPGAPGGLSHWLPAARGRLEQLGGLLANVSGELGGRLDLLEEQVAGAMQACGQLCSGAPGEQDSQVSEILSALERRVLDSEGQLRLVGSGLHTVEAAGEARQATLEGLQEVVGRLQDRVDAQDETAAEFTLRLNLTAARLGQLEGLLQAHGDEGCGACGGVQEELGRLRDGVERCSCPLLPPRGPGAGPGVGGPSRGPLDGFSVFGGSSGSALQALQGELSEVILSFSSLNDSLNELQTTVEGQGADLADLGATKDRIISEINRLQQEATEHATESEERFRGLEEGQAQAGQCPSLEGRLGRLEGVCERLDTVAGGLQGLREGLSRHVAGLWAGLRETNTTSQMQAALLEKLVGGQAGLGRRLGALNSSLQLLEDRLHQLSLKDLTGPAGEAGPPGPPGLQGPPGPAGPPGSPGKDGQEGPIGPPGPQGEQGVEGAPAAPVPQVAFSAALSLPRSEPGTVPFDRVLLNDGGYYDPETGVFTAPLAGRYLLSAVLTGHRHEKVEAVLSRSNQGVARVDSGGYEPEGLENKPVAESQPSPGTLGVFSLILPLQAGDTVCVDLVMGQLAHSEEPLTIFSGALLYGDPELEHA
Conversion of pro TGF-β1 to LAP and mature TGF-β1 (band intensity) (pro TGF-β1 processing; HEK293T cotransfected, cell extracts anti-LAP, supernatants anti-TGF-β1, FIG. 4D): inhibit the conversion of pro TGF-β1
Intensity of the band corresponding to mature TGF-β1 (pro TGF-β1 processing; HEK293T supernatant, anti-TGF-β1 Western-blot, emilin-1 cotransfected, peptide at 100 μM, FIG. 5A): decreases
Precursor (pro TGF-β) band (pro TGF-β1 processing; HEK293T supernatant, anti-TGF-β1 Western-blot, emilin-1 cotransfected, peptide at 100 μM, FIG. 5A lanes 2 and 3): increase
Interaction with pro TGF-β (co-immunoprecipitation) (pro TGF-β): co-precipitates
Activation of CAGA12-lux reporter on mixing R and S cells (pro TGF-β processing): inhibits activation of the reporter construct
Effect on luciferase expression induced by mature TGF-β (mature TGF-β1): does not antagonize mature TGF-β
Luciferase expression stimulated by transfected pro TGF-β (pro TGF-β1; CAGA12-lux and CMV-lacZ, FIG. 6C): inhibits the stimulating action of transfected pro TGF-β
Effect on luciferase expression induced by pro TGF-β1 (pro TGF-β1; CAGA12-lux, co-transfection with pro TGF-β1 vector, FIG. 2B, 2C): inhibits pro TGF-β
